How the values were obtained:
[1] = stability in human plasma (in vitro metabolic stability studies); type: in vitro ADME
Description: (§1) For example, determination of metabolic stability is commonly examined when assessing the toxicity of a compound as it is one of several major determinates in defining the oral bioavailability and systemic clearance of a compound. After a compound is administered orally, it first encounters metabolic enzymes in the gastrointestinal lumen as well as in the intestinal epithelium. After it is absorbed into the bloodstream through the intestinal epithelium, it is first delivered to the liver via the portal vein. A compound can be effectively cleared by intestinal or hepatic metabolism before it reaches systemic circulation, a process known as first pass metabolism. The stability of a compound towards metabolism within the liver as well as extrahepatic tissues will ultimately determine the concentration of the compound found in the systemic circulation and affect its half-life and residence time within the body. Cytochrome P450 (CYP) enzymes are found primarily in the liver but also in the intestinal wall, lungs, kidneys and other extrahepatic organs and are the major enzymes involved in compound metabolism. Many compounds undergo deactivation by CYPs, either directly or by facilitated excretion from the body. […]
(§2) Further safety pharmacology was assessed in vitro using the human ether-a-go-go related gene (hERG) assay for determining possible cardio-toxic effects.

[2] = in vivo
Source text: (§3) Other methods of assessing the toxicity of compounds include in vivo studies which administer relatively large doses of a test compound to a group of animals to determine the level which is lethal to a percentage of the population (mean lethal dose LD50 or mean lethal concentration LC50). Toxicity of a compound can also be assessed in vivo by examining whether a compound produces statistically significant negative effects on cardiac, blood pressure, central nervous system (CNS), body weight, food intake, gross or microscopic pathology, clinical pathology, or respiratory measures in an animal.
(§4) Furthermore, toxicology of the composition of formula III was also investigated in non-clinical in vivo studies in both rats and dogs.

[3] = mortality in pig animal model; type: in vivo; conditions: any tested dose
Source text: as §3, §4

[4] = tested on: 9 major CYP liver enzymes; assay: reactivity to CYP liver enzymes; type: in vitro ADME; conditions: in vitro
Description: as §1, §2

[5] = stability in dog plasma (in vitro metabolic stability studies); type: in vitro ADME
Description: as §1, §2

[6] = mortality in dog animal model; type: in vivo; conditions: any tested dose
Source text: as §3, §4

[7] = in vitro metabolic stability: breakdown into metabolites; type: in vitro ADME
Description: as §1, §2

[8] = mortality in rat animal model; type: in vivo; conditions: any tested dose
Source text: as §3, §4

[9] = tested on: tester strains (histidine (his) biosynthetic operon mutants); assay: Ames reverse mutation assay; type: cell-based; conditions: any of the tested doses
Source text: The Ames reverse mutation Assay is another common toxicology assay for assessing the toxicity of a compound. The Ames Assay, utilizes several different tester strains, each with a distinct mutation in one of the genes comprising the histidine (his) biosynthetic operon (Ames, B. N., et al., (1975) Mutation Res. 31:347-363). […] The Ames Assay is capable of detecting several different types of mutations (genetic damage) that may occur in one or more of the tester strains. The practice of using an in vitro bacterial assay to evaluate the genotoxic activity of drug candidates is based on the prediction that a substance that is mutagenic in a bacterium is likely to be carcinogenic in laboratory animals, and by extension may be carcinogenic or mutagenic to humans.
as §2

[10] = stability in rat plasma (in vitro metabolic stability studies); type: in vitro ADME
Description: as §1, §2

With `CC1(C)C(/C=C/C2=C(Oc3ccc(S(=O)(=O)O)cc3)C(=C/C=C3/N(CCCS(=O)(=O)O)c4ccccc4C3(C)CCCC(=O)NCCCCC(NC(=O)CCCCCCC(=O)NCCCC[C@H](NC(=O)N[C@@H](CCC(=O)O)C(=O)O)C(=O)O)C(=O)O)/CCC2)=[N+](CCCS(=O)(=O)[O-])c2ccccc21` (stereo partly drawn) [formula III] the stability in plasma [1] was “stable”, the “effects on body weight, food intake, gross or microscopic pathology and clinical pathology” value ([2]; dog) was “no significant effects” and the “effects on cardiac, blood pressure or respiratory measures” value ([2]; dog) was “no statistically significant negative effects”. The “effects on the central nervous system (CNS)” value ([2]; rat) was “no biologically meaningful effects”, the mortality [3] was “No mortality” and the “reactivity to CYP liver enzymes” value [4] was “does not show any significant reactivity”. The stability in plasma [5] was “stable”, the mortality [6] was “No mortality” and the breakdown into metabolites [7] was “does not appear to be broken down into metabolites”. The mortality [8] was “No mortality”, the mutagenicity [9] was “does not show any mutagenicity” and the stability in plasma [10] was “stable”.
